Experimental data published in the RNAGym collection of RNA variant scans (doi:10.1073/pnas.2313332121).

B1: TPR t1 (parent)
chain: GACCAAUCUGCCCUCAGAGCUCGAGAACAUCUUCGGAUGCAGAGGAGGCAGGCUUCGGUGGCGCGAUAGCGCCAACGUCCUCAACCUCCAAUGCAUCCCACCACAUGAUGAUGCCUGAAGAGCCUUGGUUUUUUG

Variants of: B1
Experiment: polymerase ribozyme fitness, log enrichment relative to wild type (log ratio); higher = more active; in vitro selection for triplet polymerase activity
How it was run: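 Fitness compares each genotype's enrichment to that of the wild type on a logarithmic scale, averaging replicates with inverse-variance weights. The logarithm is base 2. Enrichment came from Illumina sequencing of input and output libraries after one triplicate round of in vitro selection, which included frozen incubation at −7 °C, of PCR-built, transcribed mutant libraries of each subunit of a heterodimeric triplet polymerase ribozyme. Only genotypes with ≥10 input reads and ≥1 read per output were kept.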

Row | Variant | polymerase ribozyme fitness (log ratio)
1 | U7C C12G G44A U92A C102A C123U | -7.32
2 | U7A C12A G35A C53U | -5.51
3 | U7G C8G U106A C115A G127A | 2.21
4 | U7A A37U G71U A95G U96A | -0.194
5 | U7C G42A C76U C101U G120C C123A | -3
6 | A6U U131A | 0.0258
7 | U7A C79G | -1.03
8 | U7A U87A G127A | -1.5
9 | U7A C49U | 0.388
10 | U7G A27G G48C | -0.78
11 | U7A U14A G44U | -2.04
12 | U7A G44C | -0.264
13 | U7G C12A G36U G77U | -0.735
14 | U7A A16G U55G G61C C82U | -1.41
15 | U7G A111C U112A C123G | -0.393
16 | U7A G110C | -3.41
17 | U7C C40A | -0.659
18 | U7C C40G A95U C102A | -5.2
19 | U7A C12G A18U G45U U54G | -3.04
20 | U7A C31U A111G | -4.76
21 | U7C G69U C80A A83U G128C | -5.37
22 | U7G C13A A37C G52A G69U U92A A105U | -4.57
23 | U7A C12A A83C | -0.0554
24 | U7A U21C C70U G71C A90G | -2.31

Row | Variant | polymerase ribozyme fitness (log ratio)
25 | U7A C13U G36A G69U | -0.408
26 | U7C A26G G45A | -2.55
27 | U7G C34U G58A | -5.02
28 | U7C U14A A46U C64U | -2.69
29 | U7G A41G A74U U106A U130C | 0.791
30 | U7A U130A | -0.147
31 | U7A C64A U106C | -5.95
32 | U7A A37U U54G G127A G128U | -3.62
33 | U7A A43U C70G | -6.28
34 | U7C G36A U116C A118U U132A | -2.98
35 | U7A G71C G110C | -6.39
36 | U7C C49A G61U A75U U96A | -0.699
37 | U7C A46C G60U | -0.333
38 | U7A G19U U87G | -3.3
39 | U7C G17U C31U A95C C123U | -6.24
40 | U7G C8A C15U G36A C56G C70G U78C C82G U106A | -4.94
41 | U7C U14A U32A C53G G63C G120A | -4.32
42 | U7A G69C C115A | 0.0666
43 | U7A G120C | 1.32
44 | U7A G120A | 1.77
45 | U7G C31G U38A G69A C80U C101G G120A | -7.18
46 | U7G C20U C53U A68C U112A | -6.37
47 | U7A G10A G52A C115U | -1.15
48 | U7A C40U U54A C56A C73A G77U G117A G122A | -3.15

Row | Variant | polymerase ribozyme fitness (log ratio)
49 | U7A G61A U112G | 0.622
50 | U7C G44A C79U C86U | -1.45
51 | U7A C114A | -1.29
52 | U7A C114G | -2.07
53 | U7A C49U G71U | -0.851
54 | U7C C13U G47U C85A A111U | -5.01
55 | U7A G39C U55C | -1.1
56 | U7C U131A | 0.00611
57 | U7A C20G G25C C34G A43C G52A G113C | -7.56
58 | U7A G10A C28G C73A U109A A119G C123G | -5.03
59 | U7G C20U A27U G47C G113A | -4.53
60 | U7A A29G G63U C98U | -3.67
61 | U7G C15G C88G U96A A108G C124A | -5.93
62 | U7A A50U | -0.856
63 | U7G C70U C102A | -2.24
64 | U7A U14A A37G G69A | -3.91
65 | U7C G48U C53U G77A U81A U96C G120C | -2
66 | U7G C15U C28G U32A A41U G63U C89A U116C | -4.52
67 | U7C U21C G61U A83G G120A | -0.41
68 | U7G C56U | 0.612
69 | U7G C12A C15A C49A U112A | -0.0165
70 | U7A G10A C53U G61C | -0.31
71 | U7G A41U C62U U132C | -0.941
72 | U7C C98U U112A | -1.84

Row | Variant | polymerase ribozyme fitness (log ratio)
73 | U7A C22G C40U G42U C62G | -6.04
74 | U7A A27U G61C G117U | -5.69
75 | U7C A46G A108G C123A | -1.51
76 | U7C C73A C101U | 0.14
77 | U7C A27C | -2.46
78 | U7C C20G | -4.91
79 | U7A G122A | -0.674
80 | U7A G122U | -1.47
81 | U7A C12G A18G G44A G52U | -5.51
82 | U7A G17U A111C G135U | -3.91
83 | U7A C79G C123U | 0.729
84 | U7C A37G G57A C62U | -5.38
85 | U7A G42A G60C | -2.37
86 | U7C G47A G48A G69U U78C | -0.567
87 | U7C G17A A24G A26C C49A C56U C73G U87C G113A | -7
88 | U7C G48U A91U G113U G117A | -7.92
89 | U7C C13G | 0.00167
90 | U7C C13U | 0.52
91 | U7G C53G A90G | 0.0166
92 | U7C A18C G42U G77U A84U | -2.98
93 | U7A G71A | -0.425
94 | U7A U9G C82G | -0.227
95 | U7A G36C A37G C97U G113C | -3.07
96 | U7C C85A C104U U116C | -1.6

Row | Variant | polymerase ribozyme fitness (log ratio)
97 | U7A C73G C82G | -1.56
98 | U7A | 0.257
99 | U7G | 0.469
100 | U7C | 0.304
101 | U7A C11G C12U A18C A29G G47U G60C | -5.79
102 | U7A C11G G44U A50G C94U U96A G117A | -1.92
103 | U7G C12U C20A | -1.34
104 | U7G C12A U32A C73U G113A G120U | -4.58
105 | U7C G71A | -0.421
106 | U7C G48C C70U | -0.869
107 | U7G C31U G60A | -4.97
108 | U7A G10C C56U C62U C80A A84U G110A C124A U133A | -7.38
109 | U7G C11G U33A A90G C101A | -6.24
110 | U7C C11U | 0.539
111 | U7A C89G A91U C97U C115U | -1.85
112 | U7C G17A | -1.12
113 | U7A G39C A74G G107U G120U U130C | -4.02
114 | U7C G10A U14A C53G C56G A84U G117U | -6.36
115 | U7C G36U G47C G48C | -2.23
116 | U7A C88G | -0.397
117 | U7A G10A G52U C62G | -2.23
118 | U7G C28U G48A | -1.75
119 | U7C A91G C123U U126A | 0.505
120 | U7C G77C | -0.0984

Row | Variant | polymerase ribozyme fitness (log ratio)
121 | A6U U78C | 0.144
122 | U7G C72A A105U U125G | -2.26
123 | U7G C64U C73G C89A C104U A119U | -6.4
124 | U7C A16G C20U G120U | -2.78
125 | U7A U9G C73U C79G A84G U96C | -2.27
126 | U7A U109G | -2.9
127 | U7G C34U G69U C123U U133C | 1.52
128 | U7A G42U G58C G71U C88U G113A | -2.19
129 | U7A C97A C101U U112C | -2.6
130 | U7A C73G C80G | -6.07
131 | U7A C11A G117A | -2.2
132 | U7G C12G C13U A46U | -0.346
133 | U7G C70U A105G | -3.6
134 | U7A U9G A46C C85G | -1.96
135 | U7C C124G | 1.82
136 | U7G C8A G63U G65C | -6.38
137 | U7C C15U G45A U92A | -4.93
138 | U7C C28A U78A C123U | -3
139 | U7C C8G C85A U112G | -1.68
140 | U7G C11U A18C G45U C53A G57U C72U | -3.58
141 | U7C C12A C15A C20G G69U C80U C104A C114A G127C | -6.96
142 | U7A C56A C94U | -0.558
143 | U7C C13U A105U | -1.79
144 | U7C G17A A41G G52U | -3.17

Row | Variant | polymerase ribozyme fitness (log ratio)
145 | U7A C8U G60C | -0.91
146 | U7C G52U C98U C124A | -0.108
147 | U7G A16C U55G C88U A95U | -1.79
148 | U7C C40U C98A A121C | -3.62
149 | U7C G60A C89G U130G | -1.83
150 | U7A C62G G117U | -5.82
151 | U7G C70A A100U | -2.41
152 | U7A A29G C64U C88A C104A | -1.32
153 | U7G C53U C88G C104U G113C U130G | -2.37
154 | U7G C40U A43G G44U C70U U112C | -0.649
155 | U7A U9C U67C C94G G113C | -7.09
156 | U7A G63U C80A | -4.19
157 | U7C C101U C104U | 0.219
158 | U7A G17U | -1.25
159 | U7A C8G G45A U112A | 1.66
160 | U7C U9C | 0.297
161 | U7A C13U C15U G44U G77U | -2.35
162 | U7G C70U C86U U92A | -3.6
163 | A6U U96C C101U G122A | -0.932
164 | U7G C40G C56U G69U | -2.3
165 | U7A G45A G58A U59C | -2.17
166 | U7A A18U C22G C72A | -4.55
167 | U7A A26U C49U C94G C123G | -4.09
